T1: mouse tissue factor pathway inhibitor (TFPI) (mouse, UniProt O54819 29-289, limits assumed)
T1 construct: bought; also called mTFPI; murine TFPI
T1 sequence (looked up): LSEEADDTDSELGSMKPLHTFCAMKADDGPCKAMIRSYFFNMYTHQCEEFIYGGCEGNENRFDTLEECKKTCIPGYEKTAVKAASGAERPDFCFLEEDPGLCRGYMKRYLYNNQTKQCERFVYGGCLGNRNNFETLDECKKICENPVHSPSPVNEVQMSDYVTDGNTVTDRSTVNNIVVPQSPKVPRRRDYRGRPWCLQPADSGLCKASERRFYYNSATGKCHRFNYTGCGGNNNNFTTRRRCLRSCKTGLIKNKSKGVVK

T2: human tissue factor pathway inhibitor (TFPI) (human, UniProt P10646 29-304, limits assumed)
T2 construct: bought; also called hTFPI; human TFPI
T2 sequence (looked up): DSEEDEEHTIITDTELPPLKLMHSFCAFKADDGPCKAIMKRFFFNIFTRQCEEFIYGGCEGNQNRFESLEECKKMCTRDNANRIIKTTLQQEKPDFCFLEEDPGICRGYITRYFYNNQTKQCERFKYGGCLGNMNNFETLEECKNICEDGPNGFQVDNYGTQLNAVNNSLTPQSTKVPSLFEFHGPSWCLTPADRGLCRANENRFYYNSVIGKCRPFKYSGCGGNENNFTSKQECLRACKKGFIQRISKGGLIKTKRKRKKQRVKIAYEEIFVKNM

B1: 2A8 HC_G33P (Fab, V domains shown)
VH: QVQLVESGGGLVQPGGSLRLSCAASGFTFRSYPMSWVRQAPGKGLEWVSSIRGSSSSTYYADSVKGRFTISRDNSKNTLYLQMNSLRAEDTAVYYCARKYRYWFDYWGQGTLVTVSS
VL: DIELTQPPSVSVAPGQTARISCSGDNLRNYYAHWYQQKPGQAPVVVIYYDNNRPSGIPERFSGSNSGNTATLTISGTQAEDEADYYCQSWDDGVPVFGGGTKLTVLG
notes: also called 2A8-1
B2: 2A8 HC_S31V (Fab, V domains shown)
VH: B1 VH with S31V, P33G
VL: B1 VL
notes: also called 2A8-3
B3: 2A8 HC_S35D (Fab, V domains shown)
VH: B1 VH with P33G, S35D
VL: B1 VL
notes: also called 2A8-4
B4: 2A8 HC_S31P (Fab, V domains shown)
VH: B1 VH with S31P, P33G
VL: B1 VL
notes: also called 2A8-2
B5: 4B7 wild-type Fab (Fab, V domains shown)
VH: QVQLQQSGPGLVKPSQTLSLTCAISGDSVSSNSAAWSWIRQSPGRGLEWLGIIYKRSKWYNDYAVSVKSRITINPDTSKNQFSLQLNSVTPEDTAVYYCARWHSDKHWGFDYWGQGTLVTVSS
VL: DIVMTQSPLSLPVTPGEPASISCRSSQSLVFSDGNTYLNWYLQKPGQSPQLLIYKGSNRASGVPDRFSGSGSGTDFTLKISRVEAEDVGVYYCQQYDSYPLTFGQGTKVEIKR
notes: Fab with HA (or c-myc) and 6xHis tag at the C-terminus of the heavy chain; also called 4B7wt; parental 4B7
B6: 2A8 HC_K99V (Fab, V domains shown)
VH: B1 VH with P33G, K99V
VL: B1 VL
notes: also called 2A8-10
B7: 2A8 LC_Y48F (Fab, V domains shown)
VH: B1 VH with P33G
VL: B1 VL with Y48F
notes: also called 2A8-14
B8: 2A8 LC_D91L (Fab, V domains shown)
VH: B1 VH with P33G
VL: B1 VL with D91L
notes: also called 2A8-16
B9: 2A8 HC_I51E (Fab, V domains shown)
VH: B1 VH with P33G, I51E
VL: B1 VL
notes: also called 2A8-6
B10: 2A8 LC_N51V (Fab, V domains shown)
VH: B1 VH with P33G
VL: B1 VL with N51V
notes: also called 2A8-13
B11: 2A8 LC_A32N (Fab, V domains shown)
VH: B1 VH with P33G
VL: B1 VL with A32N
notes: also called 2A8-11
B12: 2A8 LC_D91K (Fab, V domains shown)
VH: B1 VH with P33G
VL: B1 VL with D91K
notes: also called 2A8-15
B13: 2A8 HC_S55R (Fab, V domains shown)
VH: B1 VH with P33G, S55R
VL: B1 VL
notes: also called 2A8-8

In general, Kd refers to the concentration at which binding is half-saturated. A low value points to tighter binding. A word on the koff: it is a measure of how fast the partners let go of each other. Read a high koff as a short-lived complex. Usually kon stands for the rate constant with which the complex forms. Read a high kon as fast association.

Where a chain is given by its changes, count along the chain named.

One assay concerns the target T1, mouse tissue factor pathway inhibitor …. Description: SPR, TFPI immobilized. (Surface plasmon resonance follows binding to a sensor surface in real time, without labels.)
Take B1: the Improvement stood at 2.21 fold, the Kd was determined as 1.59 nM, the koff turned out to be 0.00145 s⁻¹ and the kon came to 912000 M⁻¹ s⁻¹.
On to B2, for which the Improvement is 5.91 fold; the affinity, expressed as Kd, was 0.595 nM; the koff amounted to 0.00202 s⁻¹; the kon turned out to be 3.39e+06 M⁻¹ s⁻¹.
Regarding B3, the Improvement came out at 1.78 fold, the Kd stood at 1.98 nM, the koff stood at 0.00246 s⁻¹ and the kon was 1.25e+06 M⁻¹ s⁻¹.
B4 returned an Improvement of 1.71 fold, a Kd of 2.06 nM, a koff of 0.00316 s⁻¹ and a kon of 1.53e+06 M⁻¹ s⁻¹.
Turning to B5, the Improvement came out at 1 fold, the Kd was found to be 58.6 nM, the off-rate (koff) was 0.128 s⁻¹ and the kon is 2.18e+06 M⁻¹ s⁻¹.

The next assay deals with T2, human tissue factor pathway inhibitor …. The experiment in a line: SPR, TFPI immobilized.
B1 gave an Improvement of 2.7 fold, a Kd of 0.827 nM, a koff of 0.00224 s⁻¹ and an on-rate (kon) of 2.71e+06 M⁻¹ s⁻¹.
The molecule B6 gave an Improvement of 2.25 fold, a Kd of 0.995 nM, a koff of 0.00254 s⁻¹ and a kon of 2.55e+06 M⁻¹ s⁻¹.
In turn, B2 yielded an Improvement of 6 fold, a Kd of 0.373 nM, a koff of 0.00143 s⁻¹ and a kon of 3.84e+06 M⁻¹ s⁻¹.
B7 returned an Improvement of 1.97 fold, a Kd of 1.14 nM, a koff of 0.003 s⁻¹ and a kon of 2.64e+06 M⁻¹ s⁻¹.
Molecule B3 showed an Improvement of 2.35 fold, a Kd of 0.95 nM, a koff of 0.0038 s⁻¹ and a kon of 4.01e+06 M⁻¹ s⁻¹.
Regarding B4, the Improvement was 1.95 fold; the affinity, expressed as Kd, was 1.15 nM; the koff came to 0.00333 s⁻¹; the kon worked out at 2.91e+06 M⁻¹ s⁻¹.
In the case of B8, the Improvement came out at 2.24 fold; the affinity, expressed as Kd, was 0.999 nM; the koff worked out at 0.0044 s⁻¹; the kon was found to be 4.41e+06 M⁻¹ s⁻¹.
Take B9: the Improvement is 1.78 fold, the dissociation constant Kd was 1.26 nM, the koff was found to be 0.00162 s⁻¹ and the kon came out at 1.29e+06 M⁻¹ s⁻¹.
In the same order, the values of B10 are 4.32 fold, 0.518 nM, 0.0022 s⁻¹ and 4.26e+06 M⁻¹ s⁻¹.
In the same order, the values of B11 are 1.47 fold, 1.52 nM, 0.0041 s⁻¹ and 2.7e+06 M⁻¹ s⁻¹.
On to B12, for which the Improvement was determined as 4.64 fold, binding was put at a Kd of 0.482 nM, the koff came out at 0.00209 s⁻¹ and the kon amounted to 4.33e+06 M⁻¹ s⁻¹.
B13: the Improvement was 2.44 fold, the Kd was determined as 0.917 nM, the koff was 0.00394 s⁻¹ and the kon worked out at 4.3e+06 M⁻¹ s⁻¹.
Molecule B5 gave an Improvement of 1 fold, a Kd of 11.1 nM, a koff of 0.0084 s⁻¹ and a kon of 756000 M⁻¹ s⁻¹.

The target in another assay is T1, mouse tissue factor pathway inhibitor …. Description: SPR, TFPI immobilized. The source holds these as a separate data set.
Turning to B5, the KD fold improvement amounted to 1 fold, binding was put at a Kd of 54.7 nM, the koff is 0.172 s⁻¹ and the kon came to 3.15e+06 M⁻¹ s⁻¹.

The target in a further assay is T2, human tissue factor pathway inhibitor …. The experiment in a line: competitive ELISA. (In an ELISA, binding on a coated surface is turned into a signal by an enzyme label.)
The molecule B1 yielded a variant/wild-type of 5.1 ratio.
Same read-out and setting: the result for B6 reads 7.5 ratio; that for B2, 9.7 ratio.
B7: the variant/wild-type was determined as 4.6 ratio.
B3 had a variant/wild-type of 4.3 ratio.
Molecule B4 came in with a variant/wild-type of 3.6 ratio.
Take B8: the variant/wild-type came to 4.2 ratio.
As to B9, the variant/wild-type was 7.3 ratio.
B10 had a variant/wild-type of 4.4 ratio.
B11: the variant/wild-type stood at 3.5 ratio.
Same read-out and setting: the same measure for B12: 3.5 ratio; for B13: 4.4 ratio.

In the next assay the target is T1, mouse tissue factor pathway inhibitor …. The experiment in a line: competitive ELISA.
Consider B1, for which the variant/wild-type was 2.9 ratio.
In the case of B6, the variant/wild-type turned out to be 3.9 ratio.
The molecule B2 returned a variant/wild-type of 7.4 ratio.
Molecule B7 had a variant/wild-type of 3.2 ratio.
The molecule B3 had a variant/wild-type of 2.6 ratio.
B4 had a variant/wild-type of 2.4 ratio.
As to B8, the variant/wild-type worked out at 1.6 ratio.
In the case of B9, the variant/wild-type turned out to be 0.7 ratio.
Take B10: the variant/wild-type was 2 ratio.
In turn, B11 registered a variant/wild-type of 2 ratio.
B12 returned a variant/wild-type of 1.4 ratio.
On to B13, for which the variant/wild-type was 2.1 ratio.

The next assay concerns the target recombinant TFPI of the FXa restoring assay (human, mouse or rat; not specified for Tables 9 and 10). The experiment in a line: cell-based or functional assay.
B6: the “IC50, FXa restoring assay” value came to 0.39 µg/mL and the “Improvement vs parental, FXa restoring assay” value (“Improvement vs parental” below) is 1.6 fold.
For the molecule B2, the “IC50, FXa restoring assay” value was found to be 0.201 µg/mL and the “Improvement vs parental” value worked out at 3.5 fold.
In the case of B7, the “IC50, FXa restoring assay” value came out at 0.34 µg/mL and the “Improvement vs parental” value stood at 1.9 fold.
B3: the “IC50, FXa restoring assay” value turned out to be 0.55 µg/mL and the “Improvement vs parental” value turned out to be 1.1 fold.
As to B4, the “IC50, FXa restoring assay” value worked out at 0.33 µg/mL and the “Improvement vs parental” value amounted to 1.7 fold.
On to B8, for which the “IC50, FXa restoring assay” value was found to be 0.37 µg/mL and the “Improvement vs parental” value stood at 1.7 fold.
In the case of B9, the “IC50, FXa restoring assay” value amounted to 0.76 µg/mL and the “Improvement vs parental” value was found to be 0.9 fold.
In the same order, the values of B12 are 0.34 µg/mL and 1.9 fold.
On to B5, for which the “IC50, FXa restoring assay” value stood at 1.46 µg/mL and the “Improvement vs parental” value came out at 1 fold.

A further assay has as its target T2, human tissue factor pathway inhibitor …. Description: SPR, TFPI immobilized. This is another data set of the same source.
Molecule B5 had a KD fold improvement of 1 fold, a Kd of 11.1 nM, a koff of 0.0084 s⁻¹ and a kon of 756000 M⁻¹ s⁻¹.
